Results on two molecules are retold here after paper PMC7725785, “TRIB3 promotes MYC-associated lymphoma development through suppression of UBE3B-mediated MYC degradation” (Nature Communications, 2020).

Test [1] has as its target T1, UBE3B (His-tagged), recombinant (human, UniProt Q7Z3V4 1-1068).
T1 construct: recombinant UBE3B; also called purified UBE3B; source: Freestyle 293-F cells, transient transfection, purified (Ni-NTA, Superdex 200)
T1 sequence (looked up): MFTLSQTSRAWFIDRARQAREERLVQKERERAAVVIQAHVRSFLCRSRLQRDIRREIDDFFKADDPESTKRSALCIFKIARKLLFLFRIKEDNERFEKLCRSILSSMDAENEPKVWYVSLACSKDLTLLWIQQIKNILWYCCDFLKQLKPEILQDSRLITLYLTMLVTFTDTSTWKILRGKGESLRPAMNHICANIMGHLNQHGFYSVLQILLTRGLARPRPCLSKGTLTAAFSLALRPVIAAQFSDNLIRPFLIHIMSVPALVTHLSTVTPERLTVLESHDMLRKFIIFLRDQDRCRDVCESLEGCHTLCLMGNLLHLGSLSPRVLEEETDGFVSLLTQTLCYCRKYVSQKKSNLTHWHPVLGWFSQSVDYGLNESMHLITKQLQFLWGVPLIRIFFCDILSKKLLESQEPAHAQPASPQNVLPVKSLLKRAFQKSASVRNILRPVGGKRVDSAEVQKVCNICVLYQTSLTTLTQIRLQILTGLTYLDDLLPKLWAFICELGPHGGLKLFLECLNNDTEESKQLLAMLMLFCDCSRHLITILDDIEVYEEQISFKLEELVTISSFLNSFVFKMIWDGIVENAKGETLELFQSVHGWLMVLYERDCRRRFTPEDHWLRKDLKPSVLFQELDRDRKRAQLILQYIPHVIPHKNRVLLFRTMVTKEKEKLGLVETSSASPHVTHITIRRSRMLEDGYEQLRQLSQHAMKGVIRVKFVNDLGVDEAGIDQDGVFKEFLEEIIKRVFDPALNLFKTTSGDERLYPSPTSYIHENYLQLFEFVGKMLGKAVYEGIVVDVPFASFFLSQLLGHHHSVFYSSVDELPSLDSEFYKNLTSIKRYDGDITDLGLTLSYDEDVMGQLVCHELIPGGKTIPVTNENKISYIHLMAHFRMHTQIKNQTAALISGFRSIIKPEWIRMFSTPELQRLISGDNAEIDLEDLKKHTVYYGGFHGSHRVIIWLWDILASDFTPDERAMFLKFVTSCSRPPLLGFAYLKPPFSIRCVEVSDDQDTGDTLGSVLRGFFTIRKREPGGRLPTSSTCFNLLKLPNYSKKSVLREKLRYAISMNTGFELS
The experiment in a line: co-IP; in vitro co-IP: purified His-tagged UBCH3 (5 μg) and His-tagged UBE3B (5 μg) with GST-tagged TRIB3 or the KD(C) domain; 1% NP-40, 120 mM NaCl, 40 mM tris-HCl pH 7.4, 6 h at 4 °C. The note with it: both partners purified.

Another test concerns the target T2, GST-tagged TRIB3 (human, UniProt Q96RU7 1-358).
T2 construct: purified recombinant TRIB3; also called TRIB3-GST; TRIB3 protein; source: bought: Sinobiological (10731-H09B), purified
T2 sequence (looked up): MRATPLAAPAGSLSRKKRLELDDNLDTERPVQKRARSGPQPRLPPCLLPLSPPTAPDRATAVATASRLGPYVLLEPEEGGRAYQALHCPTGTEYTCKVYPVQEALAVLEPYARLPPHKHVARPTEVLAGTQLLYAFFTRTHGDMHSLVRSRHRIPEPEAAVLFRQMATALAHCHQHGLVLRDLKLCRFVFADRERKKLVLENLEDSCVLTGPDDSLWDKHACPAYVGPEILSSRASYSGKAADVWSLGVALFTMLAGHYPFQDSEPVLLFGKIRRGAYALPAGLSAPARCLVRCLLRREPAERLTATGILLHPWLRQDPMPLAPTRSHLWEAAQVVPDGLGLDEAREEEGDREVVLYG
The experiment in a line: SPR; BIAcore T200; TRIB3 immobilised directly on a CM5 chip; 0–200 nM peptide passed over; HBS-EP pH 7.4, 25 °C, 25 μl/min. The note with it: both partners purified. (Surface plasmon resonance follows binding to a sensor surface in real time, without labels.)

Where no end group is shown, it is not given here. [ ]: non-standard residue; d: D form.

B1: purified His-tagged UBCH3 (enzyme, UniProt P49427 1-236, looked up)
chain: MARPLVPSSQKALLLELKGLQEEPVEGFRVTLVDEGDLYNWEVAIFGPPNTYYEGGYFKARLKFPIDYPYSPPAFRFLTKMWHPNIYETGDVCISILHPPVDDPQSGELPSERWNPTQNVRTILLSVISLLNEPNTFSPANVDASVMYRKWKESKGKDREYTDIIRKQVLGTKVDAERDGVKVPTTLAEYCVKTKAPAPDEGSDLFYDDYYEDGEVEEEADSCFGDDEDDSGTEES
notes: UBCH3 (CDC34), purified; also called UBCH3 (E2); UHCH3
As for B1, the binding result in test [1] was “binds”.

B2: CM4 peptide (peptide)
peptide: [dK][dR][dR][dE][dQ][dL][dK][dH][dK][dL][dE][dQ][dL][dR]
notes: α-helical peptide derived from the C terminus of MYC; source: synthetic peptide (Chinese Peptide Inc., >98% purity)
Usually Kd stands for the constant that tells how readily two partners part at equilibrium. Read a high Kd as lower affinity. In the test with GST-tagged TRIB3, B2 showed a Kd of 0.0764 µM.
